According to US20250206797A1 (BEIJING TUO JIE BIOPHARMACEUTICAL, published 2025):
Changes are numbered by the printed parent chain.

B1: LY3209590 (Fc fusion)
chain: FVNQHLCGSHLVEALELVCGERGFHYGGGGGGSGGGGGIVEQCCTSTCSLDQLENYCGGGGGQGGGGQGGGGQGGGGGECPPCPAPPVAGPSVFLFPPKPKDTLMISRTPEVTCVVVDVSHEDPEVQFNWYVDGVEVHNAKTKPREEQFNSTFRVVSVLTVVHQDWLNGKEYKCKVSNKGLPAPIEKTISKTKGQPREPQVYTLPPSREEMTKNQVSLTCLVKGFYPSDIAVEWESNGQPENNYKTTPPMLDSDGSFFLYSKLTVDKSRWQQGNVFSCSVMHEALHNHYTQKSLSLSPG
B2: fusion protein 1 (insulin analog 1 + L2 + IgG2 Fc1) (Fc fusion)
chain: B1 chain with S9E, E16Y, T45E, T47I, D51E
B3: fusion protein 6 (insulin analog 5 + L2 + IgG2 Fc1) (Fc fusion)
chain: FVNQHLCGEHLVEALYLVCGERGFHYGGGGGSGGGGGIVEQCCESICSLEQLENYCGGGGGQGGGGQGGGGQGGGGGECPPCPAPPVAGPSVFLFPPKPKDTLMISRTPEVTCVVVDVSHEDPEVQFNWYVDGVEVHNAKTKPREEQFNSTFRVVSVLTVVHQDWLNGKEYKCKVSNKGLPAPIEKTISKTKGQPREPQVYTLPPSREEMTKNQVSLTCLVKGFYPSDIAVEWESNGQPENNYKTTPPMLDSDGSFFLYSKLTVDKSRWQQGNVFSCSVMHEALHNHYTQKSLSLSPG
B4: fusion protein 5 (insulin analog 1 + L2 + IgG2 Fc1) (Fc fusion)
chain: FVNQHLCGEHLVEALYLVCGERGFHYGGGGGGSGGGGGIVEQCCESICSLEQLENYCGGGGGQGGGGQGGGGQGGGGQGGGGQECPPCPAPPVAGPSVFLFPPKPKDTLMISRTPEVTCVVVDVSHEDPEVQFNWYVDGVEVHNAKTKPREEQFNSTFRVVSVLTVVHQDWLNGKEYKCKVSNKGLPAPIEKTISKTKGQPREPQVYTLPPSREEMTKNQVSLTCLVKGFYPSDIAVEWESNGQPENNYKTTPPMLDSDGSFFLYSKLTVDKSRWQQGNVFSCSVMHEALHNHYTQKSLSLSPG
B5: fusion protein 7 (insulin analog 1 + L2 + IgG2 Fc1) (Fc fusion)
chain: FVNQHLCGEHLVEALYLVCGERGFHYGGGGGGSGGGGGIVEQCCESICSLEQLENYCGPGPQPGPQPGPQPGPQPGPQPGPQPGPQPGPQECPPCPAPPVAGPSVFLFPPKPKDTLMISRTPEVTCVVVDVSHEDPEVQFNWYVDGVEVHNAKTKPREEQFNSTFRVVSVLTVVHQDWLNGKEYKCKVSNKGLPAPIEKTISKTKGQPREPQVYTLPPSREEMTKNQVSLTCLVKGFYPSDIAVEWESNGQPENNYKTTPPMLDSDGSFFLYSKLTVDKSRWQQGNVFSCSVMHEALHNHYTQKSLSLSPG
B6: fusion protein 8 (insulin analog 1 + L2 + IgG2 Fc1) (Fc fusion)
chain: B1 chain with S9E, E16Y, T45E, T47I, D51E, Q63A, Q68A, Q73A
B7: fusion protein 2 (insulin analog 2 + L2 + IgG2 Fc1) (Fc fusion)
chain: B1 chain with E16Y, T45H, T47I, D51E
B8: fusion protein 4 (insulin analog 4 + L2 + IgG2 Fc1) (Fc fusion)
chain: B1 chain with N3K, S9E, E16Y, T45E, T47I, D51E
B9: fusion protein 9 (insulin analog 6 + L2 + IgG2 Fc1) (Fc fusion)
chain: B1 chain with S9E, E16Y, T45E, T47I, D51E, G58N, G59H
B10: fusion protein 3 (insulin analog 3 + L2 + IgG2 Fc1) (Fc fusion)
chain: B1 chain with E16H, T47I, D51E, G58N

These binders were tested against T1, IGF-IR (human, UniProt P08069 31-1367) (assay: cell-based or functional assay).
With B1 the “Activity in promoting MCF-7 proliferation (EC50), CellTiter-Glo” value was 31.2 nM. For B2, the “Activity in promoting MCF-7 proliferation (EC50), CellTiter-Glo” value was 280 nM.

What follows are binders tested against insulin receptor of C2C12 mouse myoblasts (mouse, UniProt P15208 28-1372) (assay: cell-based or functional assay).
Chain of insulin receptor of C2C12 mouse myoblasts (P15208 28-1372): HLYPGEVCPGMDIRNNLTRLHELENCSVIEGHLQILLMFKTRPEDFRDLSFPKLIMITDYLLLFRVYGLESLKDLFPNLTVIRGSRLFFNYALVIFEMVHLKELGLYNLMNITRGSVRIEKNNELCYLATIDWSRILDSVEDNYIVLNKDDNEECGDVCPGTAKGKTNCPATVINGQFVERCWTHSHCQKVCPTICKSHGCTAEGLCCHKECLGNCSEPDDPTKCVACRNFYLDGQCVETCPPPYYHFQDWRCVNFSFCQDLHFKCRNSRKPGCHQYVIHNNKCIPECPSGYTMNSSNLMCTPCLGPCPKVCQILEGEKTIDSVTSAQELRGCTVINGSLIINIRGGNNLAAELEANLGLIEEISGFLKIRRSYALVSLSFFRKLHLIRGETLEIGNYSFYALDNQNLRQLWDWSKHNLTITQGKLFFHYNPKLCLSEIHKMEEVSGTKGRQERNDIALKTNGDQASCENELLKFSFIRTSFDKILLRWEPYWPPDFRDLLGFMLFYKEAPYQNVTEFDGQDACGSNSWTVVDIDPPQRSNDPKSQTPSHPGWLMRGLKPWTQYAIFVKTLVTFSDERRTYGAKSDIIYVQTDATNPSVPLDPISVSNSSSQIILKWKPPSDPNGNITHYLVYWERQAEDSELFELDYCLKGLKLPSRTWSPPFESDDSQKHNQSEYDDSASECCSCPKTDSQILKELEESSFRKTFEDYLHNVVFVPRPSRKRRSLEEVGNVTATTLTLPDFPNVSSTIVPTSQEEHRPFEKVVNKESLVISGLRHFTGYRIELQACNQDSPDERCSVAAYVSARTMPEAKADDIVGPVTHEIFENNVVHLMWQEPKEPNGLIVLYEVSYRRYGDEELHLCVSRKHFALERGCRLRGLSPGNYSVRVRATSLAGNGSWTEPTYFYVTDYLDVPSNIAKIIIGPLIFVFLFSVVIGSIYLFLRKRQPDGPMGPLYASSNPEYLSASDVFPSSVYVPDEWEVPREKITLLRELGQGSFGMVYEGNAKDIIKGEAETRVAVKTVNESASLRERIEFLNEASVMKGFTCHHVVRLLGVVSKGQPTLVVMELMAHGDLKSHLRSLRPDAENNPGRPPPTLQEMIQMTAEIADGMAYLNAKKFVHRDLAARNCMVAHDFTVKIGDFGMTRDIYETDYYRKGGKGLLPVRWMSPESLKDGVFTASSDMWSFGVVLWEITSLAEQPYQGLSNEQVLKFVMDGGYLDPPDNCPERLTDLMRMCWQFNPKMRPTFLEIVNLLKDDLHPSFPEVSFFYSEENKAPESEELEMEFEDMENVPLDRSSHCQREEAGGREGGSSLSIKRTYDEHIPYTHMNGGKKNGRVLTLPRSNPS
B3 was tested, and the “AKT phosphorylation activity (EC50) in C2C12 mouse myoblasts (HTRF phospho-S473)” value (“AKT phosphorylation activity (EC50)” below) was 456 nM. For B4, the “AKT phosphorylation activity (EC50)” value was 320 nM. In the case of B5, the “AKT phosphorylation activity (EC50)” value is reported as 280 nM. In the case of B1, the “AKT phosphorylation activity (EC50)” value is reported as 194 nM. With B6 the “AKT phosphorylation activity (EC50)” value was 544 nM. For B2, the “AKT phosphorylation activity (EC50)” value was 490 nM. B7 was tested, and the “AKT phosphorylation activity (EC50)” value was 90.5 nM. For B8, the “AKT phosphorylation activity (EC50)” value was 565 nM. In the case of B9, the “AKT phosphorylation activity (EC50)” value is reported as 133 nM. For B10, the “AKT phosphorylation activity (EC50)” value was 28.6 nM.

Biological target: T1, IGF-IR
Assay: cell-based or functional assay
Remark: another data set of the same source
With B7 the “EC50 for the activity in promoting MCF-7 proliferation, relative to LY3209590” value was ~2 fold of the EC50 of LY3209590.
